Data taken from publication PMC7170241.

Legend:
[1] = target: MamB_(BW-1) cytosolic C-terminal domain (CTD), residues 190-270 (Desulfamplus magnetovallimortis strain BW-1) (UniProt G8IQT4); test: SEC; preparative size-exclusion chromatography after Ni-NTA; HiLoad 26/60 Superdex 75; buffer E (20 mM Tris-HCl pH 8, 150 mM NaCl, 5 mM beta-mercaptoethanol)
[2] = target: MamM_(BW-1) cytosolic C-terminal domain (CTD), residues 213-293 (Desulfamplus magnetovallimortis strain BW-1); test: as above

Substance: MamB_(BW-1) cytosolic C-terminal domain (CTD), residues 190-270 (from UniProt G8IQT4 190-270) (domain or fragment)
- stoichiometry N [1]: 2

Substance: MamM_(BW-1) cytosolic C-terminal domain (CTD), residues 213-293 (domain or fragment)
- stoichiometry N [2]: 2
